In publication PMC11444770, “Moesin contributes to heat shock gene response through direct binding to the Med15 subunit of the Mediator complex in the nucleus” (Open Biology, 2024):

T1: GST-Med15 (Drosophila melanogaster, UniProt Q9Y149 1-749)
T1 construct: Med15, Drosophila Mediator subunit; CDS amplified with the primers Med15 pGex6P-1 Fw/Rev (start to stop codon) and cloned into pGex6P-1; source: E. coli SixPack, purified on Glutathione Sepharose 4B, kept on the beads; not shown: GST, N-terminal, kept
T1 sequence (looked up): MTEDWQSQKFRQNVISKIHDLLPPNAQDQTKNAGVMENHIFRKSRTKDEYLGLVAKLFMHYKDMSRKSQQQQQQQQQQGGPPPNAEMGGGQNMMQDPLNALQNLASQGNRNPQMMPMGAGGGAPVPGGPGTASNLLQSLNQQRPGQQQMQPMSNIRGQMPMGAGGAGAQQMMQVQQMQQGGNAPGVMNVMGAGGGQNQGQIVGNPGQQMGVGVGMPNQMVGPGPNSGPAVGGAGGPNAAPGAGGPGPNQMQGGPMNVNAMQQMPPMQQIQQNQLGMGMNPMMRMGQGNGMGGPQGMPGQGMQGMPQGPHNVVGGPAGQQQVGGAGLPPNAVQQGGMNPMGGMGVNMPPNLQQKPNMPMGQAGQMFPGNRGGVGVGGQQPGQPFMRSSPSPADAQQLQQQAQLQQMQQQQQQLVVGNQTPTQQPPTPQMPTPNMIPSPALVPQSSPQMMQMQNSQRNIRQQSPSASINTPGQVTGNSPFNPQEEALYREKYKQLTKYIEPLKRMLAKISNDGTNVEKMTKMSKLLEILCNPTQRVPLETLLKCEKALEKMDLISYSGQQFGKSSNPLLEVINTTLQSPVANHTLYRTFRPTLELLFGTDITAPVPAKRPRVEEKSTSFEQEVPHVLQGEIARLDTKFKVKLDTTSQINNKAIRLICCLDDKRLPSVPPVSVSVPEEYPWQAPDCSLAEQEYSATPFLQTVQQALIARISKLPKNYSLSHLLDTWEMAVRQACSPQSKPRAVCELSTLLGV

B1: 6xHis-FERM-Moe (domain or fragment, Drosophila melanogaster, UniProt P46150 1-484, looked up)
chain: MSPKALNVRVTTMDAELEFAIQSTTTGKQLFDQVVKTIGLREVWFFGLQYTDSKGDSTWIKLYKKVMNQDVKKENPLQFRFRAKFYPEDVAEELIQDITLRLFYLQVKNAILTDEIYCPPETSVLLASYAVQARHGDHNKTTHTAGFLANDRLLPQRVIDQHKMSKDEWEQSIMTWWQEHRSMLREDAMMEYLKIAQDLEMYGVNYFEIRNKKGTDLWLGVDALGLNIYEQDDRLTPKIGFPWSEIRNISFSEKKFIIKPIDKKAPDFMFFAPRVRINKRILALCMGNHELYMRRRKPDTIDVQQMKAQAREEKNAKQQEREKLQLALAARERAEKKQQEYEDRLKQMQEDMERSQRDLLEAQDMIRRLEEQLKQLQAAKDELELRQKELQAMLQRLEEAKNMEAVEKLKLEEEIMAKQMEVQRIQDEVNAKDEETKRLQDEVEDARRKQVIAAEAAAALLAASTTPQHHHVAEDENENEEELT
notes: Drosophila Moesin, amino acids 1-484 (FERM-Moe); The methods say C-terminal 6xHis tagging in pDEST17, while the label 6xHis-FERM-Moe puts the tag first; as far as I recall pDEST17 adds an N-terminal His tag; also called 6xHis-tagged FERM-Moesin; source: E. coli, purified (HisPur Cobalt Resin or Ni-NTA beads); not shown: 6xHis, C-terminal, kept
B2: GST-FERM-Moesin (domain or fragment, Drosophila melanogaster, UniProt P46150 1-484, looked up)
chain: B1 chain
notes: pGex6P-1 vector; also called GST-Moesin; source: E. coli SixPack, purified on Glutathione Sepharose 4B, kept on the beads; not shown: GST, N-terminal, kept
B3: 6xHis-Hsf (natural protein, Drosophila melanogaster, UniProt P22813 1-691, looked up)
chain: MSRSRSSAKAVQFKHESEEEEEDEEEQLPSRRMHSYGDAAAIGSGVPAFLAKLWRLVDDADTNRLICWTKDGQSFVIQNQAQFAKELLPLNYKHNNMASFIRQLNMYGFHKITSIDNGGLRFDRDEIEFSHPFFKRNSPFLLDQIKRKISNNKNGDDKGVLKPEAMSKILTDVKVMRGRQDNLDSRFSAMKQENEVLWREIASLRQKHAKQQQIVNKLIQFLITIVQPSRNMSGVKRHVQLMINNTPEIDRARTTSETESESGGGPVIHELREELLDEVMNPSPAGYTAASHYDQESVSPPAVERPRSNMSISSHNVDYSNQSVEDLLLQGNGTAGGNILVGGAASPMAQSVSQSPAQHDVYTVTEAPDSHVQEVPNSPPYYEEQNVLTTPMVREQEQQKRQQLKENNKLRRQAGDVILDAGDILVDSSSPKAQRTSIQHSTQPDVMVQPMIIKSEPENSSGLMDLMTPANDLYSVNFISEDMPTDIFEDALLPDGVEEAAKLDQQQKFGQSTVSSGKFASNFDVPTNSTLLDANQASTSKAAAKAQASEEEGMAVAKYSGAENGNNRDTNNSQLLRMASVDELHGHLESMQDELETLKDLLRGDGVAIDQNMLMGLFNDSDLMDNYGLSFPNDSISSEKKAPSGSELISYQPMYDLSDILDTDDGNNDQEASRRQMQTQSSVLNTPRHEL
notes: heat shock factor (Hsf), the Drosophila Hsf1 homologue; The methods say C-terminal 6xHis tagging in pDEST17, while the label 6xHis-Hsf puts the tag first; as far as I recall pDEST17 adds an N-terminal His tag; also called heat shock factor; source: E. coli, purified (HisPur Cobalt Resin or Ni-NTA beads); not shown: 6xHis, C-terminal, kept
B4: GST-Med17 (natural protein, Drosophila melanogaster, UniProt Q9VEC1 1-642, looked up)
chain: MSNSVNISVETTCENQIREIGYDGTELYQPPPTLSESLAKCAARIDFSKTSLDDLKKEEKSAAAAADEDKDATQFQESLWPWDAVRNKLKDALTEICVLSDVISIAKDKRYLVLDPLLEEADDTKPIVQVYSRKKAISQAAQVLLSGAERLRNAHSEQRNRNVSDFHIELLRLRQNWRLKKVSNAIIGDLSYRTAGSKFGMSGTFEVTKAEETGDEDTASSSNSSSSVSGNNGMQLKASSALRVIVPAELQGVAYIKVITQKDQEDLCTAQLNLMGHGPNITAQVGVWQKTLEFAQNVLFCKELFAQLAREAIQLQAPIPHVVIGNQIRATLLPNIQLIISLCHSTTFDSSQPAPINDHDHVLEHSLHQLLREVHYKNSHHPFPHPASAPLGPTKKRMLAGPMAADRETLLDMTKSQTILEQIIAQAQHIFMRKRTQYVLDTLARDVKDPQIVSHWNAMNSPTMSCVKINIVTHGYDAIGRTSLVIHVKERSLKCICRDGRVMRLSYEPQELRDLILCQINSHQISCLISLARCMSWTVLSNSNHLGIGKVEPLGNASSCLLASPNSDRMIAVQIRCDPQIDVKVYIARSPRQDFFPSPLVPEKLWENLGGTFKEVRFDKIEGKSFLNKMEFLMASLTSNTA
notes: Med17, Drosophila Mediator subunit; CDS amplified with the primers Med17 pGex6P-1 Fw/Rev (start to stop codon) and cloned into pGex6P-1; source: E. coli SixPack, purified on Glutathione Sepharose 4B, kept on the beads; not shown: GST, N-terminal, kept

Key:
Test in all cases: pull-down; GST-6xHis pull-down: GST-tagged baits immobilised on glutathione beads, purified 6xHis-tagged preys; 50 mM Hepes pH 7.5, 150 mM NaCl, 2 mM MgCl2, 1 mM EGTA, 1 mM DTT, 0.1% Triton X-100, 0.5 mg/ml BSA; 1.5 h at 4°C; western blot
Conditions in all cases: both partners purified
GST-Med15 = target: T1, GST-Med15
GST-Med17 = target: B4
6xHis-Hsf = target: B3

Row | binding result (GST-Med15) | binding result (GST-Med17) | binding result (6xHis-Hsf) | Binder
1 | binds | binds |  | B1
2 |  |  | binds | B2
3 | binds |  |  | B3
4 |  |  | binds | B4
